Where a SMILES comes first, the peptide text is derived from it. [ ]: non-standard residue; d: D form.
Key:
[1] = target: PKC-α (Homo sapiens, UniProt P17252); assay: Competitive binding assay using cell extracts (Western blot); set-up: endogenous PKC-α in (A) untreated human neuroblastoma (IMR-32) cells; endogenous in cells; host or cells: IMR-32 human neuroblastoma cells; key: —: no detectable affinity; Low to very low affinity at 10X or 20X or both PRE concentrations in at least one cell line in the cell extract assay; Low affinity in purified isoform assay.; Moderate affinity at 10X or 20X or both PRE concentrations in at least one cell line in the cell extract assay.; High affinity at 10X or 20X or both PRE concentrations in at least one cell line in the cell extract assay; High affinity in purified isoform assay; conditions: Cell extract; PRE 10X or 20X antibody concentration
[2] = target: PKC-δ (Homo sapiens, UniProt Q05655); assay: as above; set-up: cytoplasmic extracts from different cell lines expressing appropriate PKC isoforms; endogenous in cells; host or cells: H661, MDAMB231, LS180, T24; key: —: no detectable affinity; Low to very low affinity at 10X or 20X or both PRE concentrations in at least one cell line in the cell extract assay; Low affinity in purified isoform assay.; Moderate affinity at 10X or 20X or both PRE concentrations in at least one cell line in the cell extract assay.; High affinity at 10X or 20X or both PRE concentrations in at least one cell line in the cell extract assay; High affinity in purified isoform assay; conditions: Cell extract; PRE 10X or 20X antibody concentration
Protocol: Binding efficiency and specificity of the peptides PRE 2, 3, 4, 5, 6, 7, 8, 9, 10, 11, 12 and 13 (see Table 4) was also tested using cytoplasmic extracts from different cell lines expressing appropriate PKC isoforms as described for Example 1. Briefly, the protein cytoplasmic extracts were separated by electrophoresis and transferred onto nitrocellulose membranes by standard Western blotting procedures. The bands on the Western blots were detected with matching primary antibodies and alkaline phosphatase conjugated secondary antibody. The bands were then scanned and the relative density measurements obtained.
This procedure to assess the binding characteristics of the PREs is based on competition binding of the PRE with the primary anti-isoform PKC specific antibodies. The lower the measured band density, the greater the binding of the PRE to the PKC isoform. The PREs were added at 10 and 20 times (10×, 20×) the primary antibody concentration, according to classical competition between antigenic peptide and primary antibody. The following cell lines (obtained from the ATCC) were used: H661—NCI human lung carcinoma NSCLC; MDAMB231—human highly invasive breast cancer cell line from pleural effusion; LS180—human colon adenocarcinoma; LnCAP—human prostate adenocarcinoma; CCD16Lu—human lung fibroblasts; Du145—human prostate carcinoma brain metastasis, and T24—human bladder carcinoma.
In these cases, the 20× band density figures relative to control and 10× values were reliable.

Sequence of PKC-δ (Q05655 whole entry, canonical isoform): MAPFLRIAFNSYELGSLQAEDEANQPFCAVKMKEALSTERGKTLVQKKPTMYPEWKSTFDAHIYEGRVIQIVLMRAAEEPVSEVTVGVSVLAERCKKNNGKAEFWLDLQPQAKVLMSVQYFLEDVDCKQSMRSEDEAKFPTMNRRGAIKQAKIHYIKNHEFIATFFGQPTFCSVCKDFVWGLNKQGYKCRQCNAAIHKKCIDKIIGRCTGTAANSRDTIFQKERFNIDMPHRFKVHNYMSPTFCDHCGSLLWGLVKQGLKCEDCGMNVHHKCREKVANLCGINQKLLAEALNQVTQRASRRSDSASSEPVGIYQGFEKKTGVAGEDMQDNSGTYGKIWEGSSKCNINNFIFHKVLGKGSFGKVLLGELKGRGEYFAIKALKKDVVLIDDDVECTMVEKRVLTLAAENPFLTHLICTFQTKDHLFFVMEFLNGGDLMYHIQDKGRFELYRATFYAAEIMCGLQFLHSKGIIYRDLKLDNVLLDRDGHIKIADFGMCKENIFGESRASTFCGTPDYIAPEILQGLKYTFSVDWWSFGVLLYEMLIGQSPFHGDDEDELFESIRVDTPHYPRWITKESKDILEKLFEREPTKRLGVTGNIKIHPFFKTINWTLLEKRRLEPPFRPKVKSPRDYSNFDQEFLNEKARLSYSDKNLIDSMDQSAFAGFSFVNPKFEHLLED

Row | Affinity for PKC isoform α [1] | Affinity for PKC isoform δ [2] | Compound
1 | H/L | H | Ac-ISIGILNQADK-NH2 [PRE 10]
2 | — | — | Ac-KDAQNLI-NH2 [PRE 12]
3 | M/H | — | Ac-RDAQNLI-NH2 [PRE 13]
4 | H/L | — | Ac-RDAQNLIGISI-NH2 [PRE 11]
5 | M/L | H | Ac-isigilqnadk-NH2 (Ac-[dI][dS][dI]G[dI][dL][dQ][dN][dA][dD][dK]-NH2; SMILES CC[C@@H](C)[C@@H](NC(C)=O)C(=O)N[C@H](CO)C(=O)N[C@@H](C(=O)NCC(=O)N[C@@H](C(=O)N[C@H](CC(C)C)C(=O)N[C@H](CCC(N)=O)C(=O)N[C@H](CC(N)=O)C(=O)N[C@H](C)C(=O)N[C@H](CC(=O)O)C(=O)N[C@H](CCCCN)C(N)=O)[C@H](C)CC)[C@H](C)CC) [PRE 9]

Continued, compound first:

Row | Compound | Affinity for PKC isoform α [1] | Affinity for PKC isoform δ [2]
6 | CC[C@H](C)[C@H](NC(=O)[C@H](CO)NC(=O)[C@@H](NC(=O)CNC(=O)[C@@H](NC(=O)[C@H](CC(C)C)NC(=O)[C@H](CC(N)=O)NC(=O)[C@H](CCC(N)=O)NC(=O)[C@H](C)NC(=O)[C@H](CC(=O)O)NC(=O)CNC(=O)CNC(=O)[C@H](CCCCN)NC(=O)[C@@H](NC(=O)[C@H](CCC(=O)O)NC(=O)[C@H](CCC(N)=O)NC(=O)[C@@H](NC(=O)CNC(=O)[C@H](CCCCN)NC(=O)[C@H](C)NC(C)=O)[C@@H](C)CC)C(C)C)[C@@H](C)CC)[C@@H](C)CC)C(N)=O [PRE 3] (Ac-AKGIQEVKGGDAQNLIGISI-NH2) | H | H
7 | CC[C@H](C)[C@H](NC(=O)[C@H](CO)NC(=O)[C@@H](NC(=O)CNC(=O)[C@@H](NC(=O)[C@H](CC(C)C)NC(=O)[C@H](CC(N)=O)NC(=O)[C@H](CCC(N)=O)NC(=O)[C@H](C)NC(=O)[C@H](CC(=O)O)NC(=O)[C@H](CCCCN)NC(C)=O)[C@@H](C)CC)[C@@H](C)CC)C(N)=O [PRE 4, Ac-KDAQNLIGISI-NH2] (Ac-KDAQNLIGISI-NH2) | H | —
8 | CC[C@H](C)[C@H](NC(=O)[C@H](CO)NC(=O)[C@@H](NC(=O)CNC(=O)[C@@H](NC(=O)[C@H](CC(C)C)NC(=O)[C@H](CC(N)=O)NC(=O)[C@H](CCC(N)=O)NC(=O)[C@H](C)NC(=O)[C@H](CC(=O)O)NC(=O)[C@H](CCCCN)NC(=O)CNC(=O)CNC(=O)[C@H](CCCCN)NC(=O)[C@@H](NC(=O)[C@H](CCC(=O)O)NC(=O)[C@H](CCC(N)=O)NC(=O)[C@@H](NC(=O)CNC(=O)[C@H](CCCCN)NC(=O)[C@H](C)NC(C)=O)[C@@H](C)CC)C(C)C)[C@@H](C)CC)[C@@H](C)CC)C(N)=O [PRE 5] (Ac-AKGIQEVKGGKDAQNLIGISI-NH2) | M | —
9 | Ac-ISIGILQNADK-NH2 (not fully specified; printed as Ac-ISIGILQNADK-NH2) [PRE 7] | L | L
10 | Ac-KDANQLIGISI-NH2 [PRE 6] | H/L | M/H
11 | ILEDKGGDAQNLIGISI [PRE 8] | M/L | L
12 | RRKKGGKDFVVKR [PRE 1] | H | —

— patent US20110039770A1, “INHIBITORS OF PROTEIN KINASE C ISOFORMS AND USES THEREOF” (PHARMAGAP INC., priority 2005, published 2011)
